Measurements: publication doi:10.1101/2021.10.18.464838
pKd: −log10 of the molar value.

Tests used:
[1] = molecular target: Hsp72 tracer FITC-Ahx-…; experiment: fluorescence polarisation
[2] = molecular target: DnaJB4 (recombinant, human, full length, wild type) (human) (UniProt Q9UDY4); experiment: differential scanning fluorimetry
[3] = molecular target: DnaJB4 (recombinant, human, full length, wild type) (human) (UniProt Q9UDY4); experiment: fluorescence polarisation

| pKd [1] | Tmapp of DnaJB4 with 100 µM peptide [2] [°C] | % tracer displacement [3] [%] | Substance |
| --- | --- | --- | --- |
| 6.00 |  |  | CHIP (recombinant human) (from UniProt Q9UNE7 1-303) (natural protein) |
| 5.69 |  |  | DnaJB4 QPD mutant (from UniProt Q9UDY4 1-337) (natural protein) |
|  | 59 | 67.6 | Hsc70 C-terminal 10-mer peptide, unlabeled, N-acetylated |
